pKd: −log10 of the molar value.
Key:
HLA-A*68:02 = assay: IEDB peptide-MHC binding, purified MHC/competitive/radioactivity; filed as Kd, often an IC50 or EC50 that approximates it; ≥ and ≤ were set here for values at or beyond the usual limits of such assays
HLA-A*02:06 = assay: as above
HLA-A*02:03 = assay: as above
HLA-A*02:02 = assay: as above
HLA-B*40:01 = assay: as above
HLA-B*15:01 [1] = assay: as above
HLA-B*44:02 = assay: as above
HLA-B*44:03 = assay: as above
HLA-A*02:01 = assay: as above
HLA-B*51:01 = assay: IEDB peptide-MHC binding, purified MHC/competitive/fluorescence; filed as Kd, often an IC50 or EC50 that approximates it; ≥ and ≤ were set here for values at or beyond the usual limits of such assays; settings: source organism: Bacillus anthracis str. A0442
HLA-A*24:03 = assay: IEDB peptide-MHC binding, purified MHC/direct/fluorescence; filed as Kd, often an IC50 or EC50 that approximates it; ≥ and ≤ were set here for values at or beyond the usual limits of such assays
HLA-A*01:01 = assay: IEDB peptide-MHC binding, purified MHC/competitive/radioactivity; filed as Kd, often an IC50 or EC50 that approximates it; ≥ and ≤ were set here for values at or beyond the usual limits of such assays
HLA-B*53:01 = assay: as above
HLA-B*15:01 [2] = assay: IEDB peptide-MHC binding, purified MHC/competitive/fluorescence; filed as Kd, often an IC50 or EC50 that approximates it; ≥ and ≤ were set here for values at or beyond the usual limits of such assays; settings: source organism: Human immunodeficiency virus 1
HLA-A*26:01 = assay: IEDB peptide-MHC binding, purified MHC/competitive/radioactivity; filed as Kd, often an IC50 or EC50 that approximates it; ≥ and ≤ were set here for values at or beyond the usual limits of such assays
HLA-A*32:01 = assay: as above
HLA-A*30:01 = assay: as above
HLA-A*24:02 = assay: as above; settings: source organism: Mammarenavirus juninense
HLA-A*23:01 = assay: as above; settings: source organism: Mammarenavirus juninense
HLA-A*29:02 = assay: as above
HLA-A*30:02 = assay: as above
[3] = source organism: Vaccinia virus WR
[4] = source organism: Dengue virus 1 Brazil/97-11/1997
[5] = source organism: Dengue virus 2 Jamaica/1409/1983
[6] = source organism: Dengue virus 4 Philippines/H241/1956
[7] = source organism: Hepatitis C virus (isolate BK)
[8] = source organism: Dengue virus 4 Dominica/814669/1981
[9] = source organism: Trypanosoma cruzi
[10] = source organism: Dengue virus 3 Martinique/1243/1999
[11] = source organism: Vaccinia virus Copenhagen
[12] = source organism: Mammarenavirus juninense
[13] = source organism: Dengue virus 3 Singapore/8120/1995
[14] = source organism: HIV-1 M:B_ARV2/SF2
[15] = source organism: Mammarenavirus guanaritoense

MMLVPLITV
pKd (HLA-A*68:02; [3]): 5.29
pKd (HLA-A*02:06; [3]): ≤ 4.11
pKd (HLA-A*02:03; [3]): ≤ 4.28
pKd (HLA-A*02:02; [3]): 5.99

VEDYGFGIF
pKd (HLA-B*40:01; [4]): 6.41

MLNTYGEGF
pKd (HLA-B*15:01 [1]; [3]): 8.65

AEAIFKLTYQ
pKd (HLA-B*44:02; [5]): 6.70
pKd (HLA-B*44:03; [5]): 6.57
pKd (HLA-B*40:01; [5]): 5.84

VEMGEAAAI
pKd (HLA-B*44:02; [6]): 7.89
pKd (HLA-B*44:03; [6]): 7.56
pKd (HLA-B*40:01; [6]): 6.87

KEKVVGRII
pKd (HLA-B*40:01; [6]): 5.54

GERKKLKPRW
pKd (HLA-B*44:02; [5]): 6.08
pKd (HLA-B*44:03; [5]): 5.84

VLTDFKTWL
pKd (HLA-A*68:02; [7]): 5.64
pKd (HLA-A*02:06; [7]): 6.85
pKd (HLA-A*02:03; [7]): 8.14
pKd (HLA-A*02:01; [7]): 8.39
pKd (HLA-A*02:02; [7]): 8.81

EPINMFLFI
pKd (HLA-B*51:01): 6.33

ATPPSLVHF
pKd (HLA-A*24:03; source organism: Giardia lamblia ATCC 50803): 6.82

ITIAVASGL
pKd (HLA-A*68:02; [8]): 7.51

AAGLQDCTM
pKd (HLA-A*02:01; source organism: Hepatitis C virus (isolate 1)): ≤ 4.30

AVFMLMETM
pKd (HLA-B*15:01 [1]; [3]): 7.59

QIHLAIMAV
pKd (HLA-A*68:02; [6]): 6.54

MSTYGWNLV
pKd (HLA-A*01:01; [5]): 5.07
pKd (HLA-A*68:02; [5]): 7.92

MAVGMVSILA
pKd (HLA-A*68:02; [5]): 8.48

DVSRPTTVM
pKd (HLA-A*68:02; [9]): 6.00
pKd (HLA-A*02:06; [9]): 4.82
pKd (HLA-A*02:03; [9]): 4.81
pKd (HLA-A*02:01; [9]): ≤ 4.16
pKd (HLA-A*02:02; [9]): ≤ 4.47

NPTVDGIMTI
pKd (HLA-B*53:01; [10]): 6.67

ILGLNKIVRMY
pKd (HLA-B*15:01 [2]): ≤ 4.70

TLITGNMSF
pKd (HLA-B*15:01 [1]; [5]): 7.04

LMTGTLAVF
pKd (HLA-B*15:01 [1]; [4]): 9.40

PLEGSEDRII
pKd (HLA-A*68:02; source organism: Homo sapiens): ≤ 4.19
pKd (HLA-A*02:01; source organism: Homo sapiens): ≤ 4.15

NAVILQNAW
pKd (HLA-B*53:01; [5]): 7.09

ESITLATGPL
pKd (HLA-A*68:02; [4]): 7.00
pKd (HLA-A*26:01; [4]): 5.70

MVYKLVLLF
pKd (HLA-A*32:01; [11]): 6.48
pKd (HLA-B*15:01 [1]; [11]): 7.15

LCLSGDGWPY
pKd (HLA-A*01:01; [12]): 5.99
pKd (HLA-A*30:01; [12]): ≤ 4.25
pKd (HLA-A*24:02): ≤ 4.15
pKd (HLA-A*23:01): ≤ 4.15
pKd (HLA-A*32:01; [12]): 4.77
pKd (HLA-A*29:02; [12]): 6.83
pKd (HLA-A*26:01; [12]): ≤ 4.16
pKd (HLA-A*30:02; [12]): 5.84

LTAAVLLLV
pKd (HLA-A*01:01; [13]): 4.78
pKd (HLA-A*68:02; [13]): 8.87
pKd (HLA-A*02:06; [13]): 6.92

HPGFTILALF
pKd (HLA-B*53:01; [10]): 8.98

NPTAIFLTT
pKd (HLA-B*53:01; [5]): 5.77

FLGKIWPSYK
pKd (HLA-A*68:02; [14]): ≤ 4.39
pKd (HLA-A*02:06; [14]): 5.52
pKd (HLA-A*02:03; [14]): 6.35
pKd (HLA-A*02:01; [14]): 7.05
pKd (HLA-A*02:02; [14]): 6.35

GTLALSLTF
pKd (HLA-A*32:01; [6]): 5.86
pKd (HLA-B*15:01 [1]; [6]): 7.44

LTAIANQAAI
pKd (HLA-A*01:01; [4]): 4.99
pKd (HLA-A*68:02; [4]): 7.64

KQITNELNY
pKd (HLA-A*30:02; [6]): 8.00
pKd (HLA-B*15:01 [1]; [6]): 8.12

PPVSDLKYSW
pKd (HLA-B*53:01; [8]): 5.80

AVWDQYKDL
pKd (HLA-A*02:01; source organism: Lassa virus Josiah): 4.90

CPNERRAWNF
pKd (HLA-B*53:01; [6]): 7.15

RYPAIAGGI
pKd (HLA-A*24:03; source organism: Burkholderia mallei): 8.48

ILNFVAHVY
pKd (HLA-A*01:01; [15]): 5.10
pKd (HLA-A*30:01; [15]): 5.50
pKd (HLA-A*32:01; [15]): 6.03
pKd (HLA-A*29:02; [15]): 8.91
pKd (HLA-A*26:01; [15]): 4.92
pKd (HLA-A*30:02; [15]): 9.28

From the Immune Epitope Database (IEDB)
